Experimental data: article PMC9352680, “A comprehensive thermodynamic model for RNA binding by the Saccharomyces cerevisiae Pumilio protein PUF4”
Changes are numbered by the printed parent chain. Numbers in names are those of the source.

B1: Ie_S1_P4E.1_K4.1_C4.1_H4.1_A4.1_[+5CCC]_F4.1_T4.1 (ssRNA)
RNA: UCUCUUUGUAUCCCAUUAUCUCUU
B2: Ie_S1_P4E.1_K4.1_C4.1_H4.1_A4.1_[+5CTC]_F4.1_T4.1 (ssRNA)
RNA: UCUCUUUGUAUCUCAUUAUCUCUU
B3: Ie_S1_P4E.1_K4.1_C4.1_H4.1_A4.1_[+5TCC]_F4.1_T4.1 (ssRNA)
RNA: UCUCUUUGUAUUCCAUUAUCUCUU
B4: Ib_S2_P3E.1_K3.1_C3.1_H3.1_A3.1_F3.1_[T7C]_[A8T]_T3.1 (ssRNA)
RNA: UUUGAUUAAUAUGAUAUCGUUCUUUCUUGUAUACUUUCUUUCUCGAUAUCAUAUUAAUCUUU
B5: Ie_S1_P4E.1_K4.1_C4.1_H4.1_A4.1_[+5TTC]_F4.1_T4.1 (ssRNA)
RNA: UCUCUUUGUAUUUCAUUAUCUCUU
B6: Ie_S1_P5E.1_K5.1_C5.1_H5.1_A5.1_[+6CTC]_F5.1_T5.1 (ssRNA)
RNA: UCUCUUUGUAUUCUCAUUAUCUCUU
B7: Ie_S1_P4E.1_K4.1_C4.1_H4.1_A4.1_[+5CCTC]_F4.1_T4.1 (ssRNA)
RNA: UCUCUUUGUAUCCUCAUUAUCUCUU
B8: Ie_S1_P4E.1_K4.1_C4.1_H4.1_A4.1_[+5TTCC]_F4.1_T4.1 (ssRNA)
RNA: UCUCUUUGUAUUUCCAUUAUCUCUU
B9: Ie_S1_P5E.1_K5.1_C5.1_H5.1_A5.1_[+5CCC]_F5.1_T5.1 (ssRNA)
RNA: UCUCUUUGUAUCCCUAUUAUCUCUU
B10: Ie_S1_P5E.1_K5.1_C5.1_H5.1_A5.1_[+5TCTC]_F5.1_T5.1 (ssRNA)
RNA: UCUCUUUGUAUUCUCUAUUAUCUCUU
B11: Ie_S1_P5E.1_K5.1_C5.1_H5.1_A5.1_[+5CCTC]_F5.1_T5.1 (ssRNA)
RNA: UCUCUUUGUAUCCUCUAUUAUCUCUU
B12: Ie_S1_P5E.1_K5.1_C5.1_H5.1_A5.1_[+5TTCC]_F5.1_T5.1 (ssRNA)
RNA: UCUCUUUGUAUUUCCUAUUAUCUCUU
B13: Ie_S1_P4E.1_K4.1_C4.1_H4.1_A4.1_[+5CCCTT]_F4.1_T4.1 (ssRNA)
RNA: UCUCUUUGUAUCCCUUAUUAUCUCUU
B14: Ie_S1_P4E.1_K4.1_C4.1_H4.1_A4.1_[+6CC]_F4.1_T4.1 (ssRNA)
RNA: UCUCUUUGUAUACCUUAUCUCUU
B15: Ic_S2_P3E.1_K3.1_C3.1_H3.1_A3.1_F3.1_[T7A]_[A8C]_T3.1 (ssRNA)
RNA: B4 RNA with C34A, U35C
B16: Ie_S1_P4E.1_K4.1_C4.1_H4.1_A4.1_[+7CT]_F4.1_T4.1 (ssRNA)
RNA: UCUCUUUGUAUAUCUUAUCUCUU
B17: Ie_S1_P4E.1_K4.1_C4.1_H4.1_A4.1_[+7TT]_F4.1_T4.1 (ssRNA)
RNA: UCUCUUUGUAUAUUUUAUCUCUU
B18: Ie_S1_P4E.1_K4.1_C4.1_H4.1_A4.1_[+6CCC]_F4.1_T4.1 (ssRNA)
RNA: UCUCUUUGUAUACCCUUAUCUCUU
B19: Ie_S1_P4E.1_K4.1_C4.1_H4.1_A4.1_[+6CTC]_F4.1_T4.1 (ssRNA)
RNA: UCUCUUUGUAUACUCUUAUCUCUU
B20: Ie_S1_P4E.1_K4.1_C4.1_H4.1_A4.1_[+7CCT]_F4.1_T4.1 (ssRNA)
RNA: UCUCUUUGUAUAUCCUUAUCUCUU
B21: Ie_S1_P4E.1_K4.1_C4.1_H4.1_A4.1_[+6TTC]_F4.1_T4.1 (ssRNA)
RNA: UCUCUUUGUAUAUUCUUAUCUCUU
B22: Ie_S1_P4E.1_K4.1_C4.1_H4.1_A4.1_[+6TCT]_F4.1_T4.1 (ssRNA)
RNA: UCUCUUUGUAUAUCUUUAUCUCUU
B23: Ie_S1_P4E.1_K4.1_C4.1_H4.1_A4.1_[+6CTT]_F4.1_T4.1 (ssRNA)
RNA: UCUCUUUGUAUACUUUUAUCUCUU
B24: Ie_S1_P4E.1_K4.1_C4.1_H4.1_A4.1_[+7TTT]_F4.1_T4.1 (ssRNA)
RNA: UCUCUUUGUAUAUUUUUAUCUCUU
B25: Ie_S1_P4E.1_K4.1_C4.1_H4.1_A4.1_[+6CTCT]_F4.1_T4.1 (ssRNA)
RNA: UCUCUUUGUAUACUCUUUAUCUCUU
B26: Ic_S2_P3E.1_K3.1_C3.1_H3.1_A3.1_F3.1_[T7A]_[A8T]_T3.1 (ssRNA)
RNA: B4 RNA with C34A
B27: Ie_S1_P4E.1_K4.1_C4.1_H4.1_A4.1_[+6TCTC]_F4.1_T4.1 (ssRNA)
RNA: UCUCUUUGUAUAUCUCUUAUCUCUU
B28: Ie_S1_P4E.1_K4.1_C4.1_H4.1_A4.1_[+6CCTC]_F4.1_T4.1 (ssRNA)
RNA: UCUCUUUGUAUACCUCUUAUCUCUU
B29: Ie_S1_P4E.1_K4.1_C4.1_H4.1_A4.1_[+6CCCT]_F4.1_T4.1 (ssRNA)
RNA: UCUCUUUGUAUACCCUUUAUCUCUU
B30: Ie_S1_P4E.1_K4.1_C4.1_H4.1_A4.1_[+6CTCTC]_F4.1_T4.1 (ssRNA)
RNA: UCUCUUUGUAUACUCUCUUAUCUCUU
B31: Ie_S1_P4E.1_K4.1_C4.1_H4.1_A4.1_[+6TCTCT]_F4.1_T4.1 (ssRNA)
RNA: UCUCUUUGUAUAUCUCUUUAUCUCUU
B32: Ie_S1_P4E.1_K4.1_C4.1_H4.1_A4.1_[+6CCTCT]_F4.1_T4.1 (ssRNA)
RNA: UCUCUUUGUAUACCUCUUUAUCUCUU
B33: Ie_S1_P4E.1_K4.1_C4.1_H4.1_A4.1_[+7CC]_F4.1_T4.1 (ssRNA)
RNA: UCUCUUUGUAUAUCCUAUCUCUU
B34: Ie_S1_P4E.1_K4.1_C4.1_H4.1_A4.1_F4.1_[+8CT]_T4.1 (ssRNA)
RNA: UCUCUUUGUAUAUUCUAUCUCUU
B35: Ie_S1_P4E.1_K4.1_C4.1_H4.1_A4.1_[+7CCC]_F4.1_T4.1 (ssRNA)
RNA: UCUCUUUGUAUAUCCCUAUCUCUU
B36: Ie_S1_P4E.1_K4.1_C4.1_H4.1_A4.1_F4.1_[+8CCT]_T4.1 (ssRNA)
RNA: UCUCUUUGUAUAUUCCUAUCUCUU
B37: Ib_S2_P3E.1_K3.1_C3.1_H3.1_[T1C]_A3.1_F3.1_[T7C]_T3.1 (ssRNA)
RNA: B4 RNA with U28C, U35A
B38: Ie_S1_P4E.1_K4.1_C4.1_H4.1_A4.1_[+7TTC]_F4.1_T4.1 (ssRNA)
RNA: UCUCUUUGUAUAUUUCUAUCUCUU
B39: Ie_S1_P4E.1_K4.1_C4.1_H4.1_A4.1_F4.1_[+8CTCT]_T4.1 (ssRNA)
RNA: UCUCUUUGUAUAUUCUCUAUCUCUU
B40: Ie_S1_P4E.1_K4.1_C4.1_H4.1_A4.1_[+7CCTC]_F4.1_T4.1 (ssRNA)
RNA: UCUCUUUGUAUAUCCUCUAUCUCUU
B41: Ie_S1_P4E.1_K4.1_C4.1_H4.1_A4.1_[+7TTCC]_F4.1_T4.1 (ssRNA)
RNA: UCUCUUUGUAUAUUUCCUAUCUCUU
B42: Ie_S1_P4E.1_K4.1_C4.1_H4.1_A4.1_[+7CCCT]_F4.1_T4.1 (ssRNA)
RNA: UCUCUUUGUAUAUCCCUUAUCUCUU
B43: Ie_S1_P4E.1_K4.1_C4.1_H4.1_A4.1_[+7CTCTC]_F4.1_T4.1 (ssRNA)
RNA: UCUCUUUGUAUAUCUCUCUAUCUCUU
B44: Ie_S1_P4E.1_K4.1_C4.1_H4.1_A4.1_[+7CCTCT]_F4.1_T4.1 (ssRNA)
RNA: UCUCUUUGUAUAUCCUCUUAUCUCUU
B45: Ie_S1_P4E.1_K4.1_C4.1_H4.1_A4.1_[+7TTCCT]_F4.1_T4.1 (ssRNA)
RNA: UCUCUUUGUAUAUUUCCUUAUCUCUU
B46: Ie_S1_P4E.1_K4.1_C4.1_H4.1_A4.1_F4.1_[+8TC]_T4.1 (ssRNA)
RNA: UCUCUUUGUAUAUUUCAUCUCUU
B47: Ie_S1_P4E.1_K4.1_C4.1_H4.1_A4.1_F4.1_[+8CTC]_T4.1 (ssRNA)
RNA: UCUCUUUGUAUAUUCUCAUCUCUU
B48: Ib_S2_P3E.1_K3.1_C3.1_H3.1_[T1C]_A3.1_F3.1_[T7A]_T3.1 (ssRNA)
RNA: B4 RNA with U28C, C34A, U35A
B49: Ie_S1_P4E.1_K4.1_C4.1_H4.1_A4.1_F4.1_[+8TTC]_T4.1 (ssRNA)
RNA: UCUCUUUGUAUAUUUUCAUCUCUU
B50: Ie_S1_P4E.1_K4.1_C4.1_H4.1_A4.1_F4.1_[+8CCTC]_T4.1 (ssRNA)
RNA: UCUCUUUGUAUAUUCCUCAUCUCUU
B51: Ie_S1_P4E.1_K4.1_C4.1_H4.1_A4.1_F4.1_[+8TTCC]_T4.1 (ssRNA)
RNA: UCUCUUUGUAUAUUUUCCAUCUCUU
B52: Ie_S1_P4E.1_K4.1_C4.1_H4.1_A4.1_F4.1_[+8CCCT]_T4.1 (ssRNA)
RNA: UCUCUUUGUAUAUUCCCUAUCUCUU
B53: Ie_S1_P4E.1_K4.1_C4.1_H4.1_A4.1_F4.1_[+8CTCTC]_T4.1 (ssRNA)
RNA: UCUCUUUGUAUAUUCUCUCAUCUCUU
B54: Ie_S1_P4E.1_K4.1_C4.1_H4.1_A4.1_F4.1_[+8TCTCT]_T4.1 (ssRNA)
RNA: UCUCUUUGUAUAUUUCUCUAUCUCUU
B55: Ie_S1_P4E.1_K4.1_C4.1_H4.1_A4.1_F4.1_[+8CCTCT]_T4.1 (ssRNA)
RNA: UCUCUUUGUAUAUUCCUCUAUCUCUU
B56: Ie_S1_P4E.1_K4.1_C4.1_H4.1_A4.1_F4.1_[+8TTCCT]_T4.1 (ssRNA)
RNA: UCUCUUUGUAUAUUUUCCUAUCUCUU
B57: Ie_S1_P4E.1_K4.1_C4.1_H4.1_A4.1_F4.1_[+9T]_T4.1 (ssRNA)
RNA: UCUCUUUGUAUAUUAUUCUCUU
B58: Ie_S1_P4E.1_K4.1_C4.1_H4.1_A4.1_F4.1_[+9CC]_T4.1 (ssRNA)
RNA: UCUCUUUGUAUAUUACCUCUCUU
B59: Ib_S2_P3E.1_K3.1_C3.1_H3.1_[G2C]_A3.1_F3.1_[T7A]_T3.1 (ssRNA)
RNA: B4 RNA with G29C, C34A, U35A
B60: Ie_S1_P4E.1_K4.1_C4.1_H4.1_A4.1_F4.1_[+9CT]_T4.1 (ssRNA)
RNA: UCUCUUUGUAUAUUACUUCUCUU

Molecular target: T1, PUF4 RNA-binding domain (Saccharomyces cerevisiae, UniProt P25339 537-888)
T1 sequence: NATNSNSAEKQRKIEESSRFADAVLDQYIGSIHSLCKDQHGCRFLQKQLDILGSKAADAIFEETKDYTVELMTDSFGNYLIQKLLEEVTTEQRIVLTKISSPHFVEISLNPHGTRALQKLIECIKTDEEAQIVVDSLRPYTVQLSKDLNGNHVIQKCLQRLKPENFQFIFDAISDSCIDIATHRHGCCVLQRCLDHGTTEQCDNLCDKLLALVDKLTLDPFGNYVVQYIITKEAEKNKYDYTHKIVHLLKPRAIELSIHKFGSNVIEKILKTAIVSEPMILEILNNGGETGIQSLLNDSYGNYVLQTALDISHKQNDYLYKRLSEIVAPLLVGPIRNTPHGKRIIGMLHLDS
Test: Mg; RNA-MaP; 20 mM Na-HEPES pH 7.4, 30 mM KOAc, 0.75 mM MgCl2, 0.1% Tween-20, 5% glycerol, 0.1 mg/mL BSA, 2 mM DTT; 25 C; 0.0125-409.6 nM protein
Conditions: tags: N-His6-TEV cleaved; C-SNAP kept, Cy3B-labelled; label: tethered on chip by stalled RNA polymerase

| Binder | Kd [nM] |
| --- | --- |
| B1 | 76.1 |
| B2 | 37.1 |
| B3 | 62 |
| B4 | 3.86 |
| B5 | 39.7 |
| B6 | 33.8 |
| B7 | 38.3 |
| B8 | 96.6 |
| B9 | 20 |
| B10 | 22.9 |
| B11 | 23.9 |
| B12 | 15.9 |
| B13 | 41 |
| B14 | 8.34 |
| B15 | 27.7 |
| B16 | 6.9 |
| B17 | 4.6 |
| B18 | 35.3 |
| B19 | 8.94 |
| B20 | 16.4 |

| Binder | Kd [nM] |
| --- | --- |
| B21 | 6.67 |
| B22 | 13.9 |
| B23 | 6.8 |
| B24 | 5.93 |
| B25 | 12.6 |
| B26 | 6.77 |
| B27 | 24.4 |
| B28 | 41.5 |
| B29 | 48.6 |
| B30 | 10.9 |
| B31 | 14.7 |
| B32 | 27.5 |
| B33 | 14.2 |
| B34 | 5.4 |
| B35 | 31.9 |
| B36 | 8.2 |
| B37 | 649 |
| B38 | 5.38 |
| B39 | 7.11 |
| B40 | 25.3 |

| Binder | Kd [nM] |
| --- | --- |
| B41 | 6.97 |
| B42 | 23.4 |
| B43 | 15.9 |
| B44 | 31.7 |
| B45 | 3.91 |
| B46 | 5.5 |
| B47 | 10.8 |
| B48 | > 2300 |
| B49 | 6.76 |
| B50 | 6.83 |
| B51 | 5.8 |
| B52 | 6.32 |
| B53 | 5.64 |
| B54 | 6.66 |
| B55 | 6.71 |
| B56 | 5.96 |
| B57 | 0.531 |
| B58 | 0.729 |
| B59 | > 2300 |
| B60 | 0.578 |
